# Test results: patent US8728787B2, “Fungal laccases and uses thereof” (Academia Sinica, priority 2010, dated 2014)
# Key:
# [1] = ABTS oxidation assay (laccase activity, kinetics, effect of temperature and pH); assay type: biochemical
# Experimental: All chemicals used in this study were obtained from Merck (Darmstadt, Germany) or Sigma-Aldrich (St. Louis, Mo. USA). All spectrophotometric measurements were performed using the Beckman DU 640 spectrophotometer (Beckman Coulter, USA).
# (§1) The effect of temperature on laccase activity was studied using the standard enzymatic activity assay described above under various reaction temperatures (i.e., 20-80° C.). For thermal stability study, the enzyme was pre-incubated in a 50 mM citric acid buffer (pH 3.0) at 50-80° C. for 0-180 min and the residual enzymatic activity was then determined.
# (§2) The effect of pH on the laccase activity was investigated at a pH range of 2.5-6.0. Four buffer systems were used in this study: 50 mM glycine-HCl buffer (pH 2.5), 50 mM citric acid buffer (pH 3.0-5.5), 50 mM sodium phosphate buffer (pH 6.0-8.0), and 50 mM glycine-NaOH buffer (pH 9.0-10). To determine the protein stability of laccase at a wide range of pH conditions, the enzyme (0.1 mg/mL in each reaction) was pre-incubated at pH 3.0-10 at 25° C. for 0-5 days and then the residual enzyme activity was determined.
# (§3) Kinetic parameters Km and Vmax were determined as follows. […] The oxidation reactions of guaiacol and 2,6-DMP were monitored by determining OD436 values (ε=6,400 M^−1cm^−1) and OD468 values (ε=49,600 M^−1 cm^−1), respectively. The kinetic parameters were determined by nonlinear regression analysis (ENZFITTER software program, Elsevier-Biosoft, Cambridge, UK) using the Michaelis-Menten model.
# (§4) To determine the effect of temperature on the enzyme activity, a standard enzymatic activity assay was performed under various temperatures (i.e., 30-90° C.). For thermal stability study, laccase was pre-incubated in a 50 mM citric acid buffer (pH 3.0) at 30-80° C. for 10-40 min and the residual enzymatic activity was then determined by the standard assay. See Example 1 above. Values of t1/2 were determined accordingly.
# (§5) The effect of pH on laccase activity was investigated at pH 2.0-6.0, using a glycine-HCl buffer (pH 2.0-2.5) or a citric acid buffer (pH 2.5-6.0). To determine protein stability in different pH conditions, the enzyme was pre-incubated at pH 2.5-4.5 at 25° C. for 0-2 h and the residual enzyme activity was determined by the standard enzymatic assay.
# (§6) Kinetic parameters were determined following conventional methods. See also Example 1 above.
# [2] = 2,6-DMP oxidation (laccase kinetics, optimum temperature and pH); assay type: biochemical; conditions: 2,6-DMP as substrate
# Experimental: as §1, §2, §3, §4, §5, §6
# [3] = pH stability: residual activity after pre-incubation at various pH; assay type: physicochemical
# Experimental: as §2, §5
# [4] = Effect of organic solvents on laccase activity; assay type: biochemical; conditions: ABTS
# Experimental: To test the effects of various organic solvents on laccase activity, the enzymatic assay described above was carried out in the presence of one of the organic solvents shown in Table 1 below at various concentrations (1%, 10% and 25%). A T. versicolor (Fluka) laccase was used as a reference enzyme in this study. The enzyme concentration used in this study was 0.2 mg/ml. […] Further, more than 80% laccase activity remained in the presence of 10% acetonitrile or dimethyl sulfoxide. […]
# [5] = Laccase stability on extended incubation with ethanol or methanol; assay type: physicochemical; conditions: room temperature, pH 6.0
# Experimental: To examine the effect of ethanol on Cerrena sp. WR1 laccase stability, the enzyme was incubated in a 50 mM sodium phosphate buffer (pH 6.0) containing 1%, 10%, or 25% ethanol at room temperature for up to 52 days and the residual enzyme activity was measured at different time points during incubation. A T. versicolor laccase (LccTv) was used as a reference enzyme. […] Differently, Lcc3 retained around 90% activity after being incubated with 25% ethanol for 10 days and retained approximately 50% enzymatic activity after a 40-day incubation period. This enzyme also retained about 50% enzymatic activity after a 45-day incubation period with 10% ethanol and a 40-day incubation without ethanol.
# The laccase stability after incubation with methanol or ethanol for an extended period was further investigated. […] The enzyme activity of the Lentinus sp. laccase maintained as 95% in 25% ethanol while that of the reference laccase reduced to 41%.
# [6] = pH 3
# Experimental: Lignin degradation reaction was carried out by mixing a crude laccase broth (containing 100 U enzyme) with 50 ml reaction buffer (50 mM citric acid solution; pH 3.0) containing 100 mg smashed rice straw materials. The mixture was incubated at 30-80° C. for 20-60 min. Sodium azide was added to the mixture at a final concentration of 1 mM to stop the enzymatic reaction. The processed rice straw was collected by filtration and dried at 60° C. The lignin contents in the rice straw before and after treatment were determined following the method described in kappa number of ISO 302:2004 (International Organization for Standardization).
# (§7) The lignin degradation reaction and the dye decoloration reaction were carried out following the methods described in Example 1 above. […] See FIG. 9, pane A. The lignin degradation efficiencies were 22%-25% at 40-50° C. for 40 min and 32% at 40° C. for 60 min.
# RBBR dye decoloration = conditions: 0.02% RBBR, 8 U enzyme, 20° C., 1 h, pH 3.0
# Experimental: Dye decoloration reaction was performed by mixing a partially purified laccase broth (containing 8 U enzyme) with a 1 ml reaction buffer (50 mM citric acid solution; pH 3.0) containing 0.02% RBBR (Sigma). The mixture was incubated at 20° C. for 1 h. Dye decoloration was determined by monitoring the change in absorbance at 595 nm and the dye decoloration efficiency (%) was defined as the relative amount of dye reduced after the treatment.
# as §7
molecule,measurement,setting,value
"Lcc3: laccase purified from Cerrena sp. WR1, GenBank accession no. GQ899203; SEQ ID NO:3 mature, 9 precursor (protein, Cerrena sp) AIGPVADLHITDANVSPDGFTRPAVLAGGTFPGPLITGKQGDNFQINVIDELTDATMLKSTSIHWHGIFQKGTNWADGPSFVNQCPITTGNSFLYDFSVPDQTGTYWYHSHLSTQYCDGLRGALVIYDDNDPHKDLYDVDDETTVITLADWYHTQARLITGVPVSDATLINGLGRYLNGPTDAPLAVITVDQGKRYRFRLVSISCDPNFVFSIDNHSMTVIEVDAVNSQPLVVDSIQIFAAQRYSFILNANQSVGNYWIRANPNLGNTGFTNGINSAILRYNGAPVAEPNTTQTASTNPLNEVNLHPLVPTPVPGTPQPGGVDVVQNLVLGFSGGKFTINGVAFSPPTVPVLLQILSGTTTAQDLLPTGSIIELPLGKTVELTLAAGVLGGPHPFHLHGHTFHVVRSAGQTTPNYVDPILRDTVNTGAAGDNVTIRFTTDNPGPWFLHCHIDWHLEAGFAVVFAEGLNQTNAANPTPDAWNNLCDLYNALPAGDQ",optimal temperature,[1]; ABTS as substrate,50 °C
same,pH of maximal activity,[1]; ABTS as substrate,3.0
same,Optimum temperature,"[1]; ABTS as substrate, at pH 3.0",50 (at pH 3.0) ° C.
same,Specific activity,"[1]; ABTS as substrate, optimum temperature and pH",1013.5 U/mg
same,specific activity of the purified laccase,"[1]; at 30° C. and pH 3.0, ABTS","2,159.6 U/mg"
same,optimal temperature,[2],70 °C
same,pH of maximal activity,[2],3.5
same,Optimum temperature,[2]; at pH 3.5,70 (at pH 3.5) ° C.
same,Specific activity,[2]; optimum temperature and pH,118.3 U/mg
same,stability at an acidic environment,[3]; pH 3.0-5.0,less stable
same,activity maintained,"[3]; pH 6-10, 63 hr incubation, 25° C.",about 100%
same,Relative activity,"[4]; Acetonitrile 1%, pH 3.0, 30° C.",92.7 ± 2.5%
same,Relative activity,"[4]; Acetonitrile 25%, pH 3.0, 30° C.",77.5 ± 3.2%
same,Relative activity,"[4]; Dimethyl sulfoxide 1%, pH 3.0, 30° C.",93.5 ± 1.4%
same,Relative activity,"[4]; Dimethyl sulfoxide 25%, pH 3.0, 30° C.",55.8 ± 1.7%
same,Relative activity,"[4]; Ethanol 1%, pH 3.0, 30° C.",94.5 ± 1.8%
same,Relative activity,"[4]; Ethanol 10%, pH 3.0, 30° C.",93.9 ± 4.0%
same,Relative activity,"[4]; Ethanol 25%, pH 3.0, 30° C.",84.8 ± 3.3%
same,Relative activity,"[4]; Methanol 1%, 50 mM citric acid buffer pH 3.0, 30° C.",93.0 ± 1.5%
same,Relative activity,"[4]; Methanol 10%, pH 3.0, 30° C.",85.5 ± 0.9%
same,Relative activity,"[4]; N,N-dimethylformamide 1%, pH 3.0, 30° C.",100 ± 0.9%
same,Relative activity,"[4]; N,N-dimethylformamide 10%, pH 3.0, 30° C.",98.4 ± 0.5%
same,activity retained,"[5]; 1% ethanol, 52-day incubation",about 61%
same,activity retained,"[5]; 10% ethanol, 45-day incubation",approximately 50%
same,activity retained,"[5]; 25% ethanol, 40-day incubation",approximately 50%
same,activity retained,"[5]; 25% ethanol, 10 days",around 90%
same,activity retained,"[5]; without ethanol, 40-day incubation",approximately 50%
same,highest lignin degradation efficiency per 100 U,[6],around 22.9%
same,decoloration efficiency against RBBR,RBBR dye decoloration,70.1%
